# Source: patent US20150133367A1 (University of Pennsylvania, published 2015)
# Values joined by “and” are separate entries in the source; they are usually repeats but may differ in a detail not shown here. Equal values may be shown once. Positions of bridges follow the written chain, without caps; N, C: chain ends. No end group written: not given here. alpha,alpha'‑meta‑xylylene = alpha,alpha'-meta-xylylene linker (from a,a'-dibromo-meta-xylene) bridging two cysteines via bis-thioether
# T1: Cathepsin K (UniProt P43235 115-329)
# T1 sequence (looked up): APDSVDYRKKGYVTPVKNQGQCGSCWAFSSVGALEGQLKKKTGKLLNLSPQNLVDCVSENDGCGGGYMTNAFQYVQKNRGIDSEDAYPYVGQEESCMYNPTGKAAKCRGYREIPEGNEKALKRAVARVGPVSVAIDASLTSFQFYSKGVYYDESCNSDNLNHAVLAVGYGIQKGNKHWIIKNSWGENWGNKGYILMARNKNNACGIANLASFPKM
# T2: Calpain-1
# T2 chain 1: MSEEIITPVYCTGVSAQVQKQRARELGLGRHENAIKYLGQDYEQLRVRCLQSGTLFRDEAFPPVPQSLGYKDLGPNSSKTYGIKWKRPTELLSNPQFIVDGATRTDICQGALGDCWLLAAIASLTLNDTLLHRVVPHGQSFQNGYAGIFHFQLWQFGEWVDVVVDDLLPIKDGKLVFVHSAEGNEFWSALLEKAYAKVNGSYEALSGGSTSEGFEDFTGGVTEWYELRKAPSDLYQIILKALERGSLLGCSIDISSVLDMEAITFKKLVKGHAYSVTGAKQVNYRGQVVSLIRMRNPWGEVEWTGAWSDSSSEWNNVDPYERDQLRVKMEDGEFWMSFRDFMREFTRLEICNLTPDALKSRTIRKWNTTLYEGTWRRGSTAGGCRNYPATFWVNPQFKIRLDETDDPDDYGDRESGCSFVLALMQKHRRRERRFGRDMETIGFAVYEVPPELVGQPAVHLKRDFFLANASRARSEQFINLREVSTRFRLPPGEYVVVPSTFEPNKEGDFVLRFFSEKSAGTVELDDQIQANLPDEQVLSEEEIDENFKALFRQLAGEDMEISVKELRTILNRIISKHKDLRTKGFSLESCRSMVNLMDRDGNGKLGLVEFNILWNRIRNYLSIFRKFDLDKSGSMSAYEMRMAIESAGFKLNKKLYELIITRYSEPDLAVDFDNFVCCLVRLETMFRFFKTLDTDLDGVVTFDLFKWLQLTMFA
# T2 chain 2: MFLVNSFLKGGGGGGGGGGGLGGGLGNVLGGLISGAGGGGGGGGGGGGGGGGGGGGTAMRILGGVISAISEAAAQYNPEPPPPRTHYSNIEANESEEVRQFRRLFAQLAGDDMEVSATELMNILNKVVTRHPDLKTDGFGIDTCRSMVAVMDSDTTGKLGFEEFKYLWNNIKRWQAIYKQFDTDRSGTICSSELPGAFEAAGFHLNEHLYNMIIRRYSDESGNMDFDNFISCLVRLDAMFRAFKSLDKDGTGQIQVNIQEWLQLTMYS
# B1: TSEEVCSLMCS (SEQ ID NO:16) (peptide)
# peptide: TSEEVCSLMCS
# modifications: linker 6-10 via alpha,alpha'‑meta‑xylylene
# B2: TSEEWCSLMCS (SEQ ID NO:21) (peptide)
# peptide: TSEEWCSLMCS
# modifications: linker 6-10 via alpha,alpha'‑meta‑xylylene
# notes: single mutant
# B3: TSEWVCSLMCS (SEQ ID NO:20) (peptide)
# peptide: TSEWVCSLMCS
# modifications: linker 6-10 via alpha,alpha'‑meta‑xylylene
# notes: single mutant
# B4: TWEEVCSLMCS (SEQ ID NO:18) (peptide)
# peptide: TWEEVCSLMCS
# modifications: linker 6-10 via alpha,alpha'‑meta‑xylylene
# notes: single mutant
# B5: WWEWVCSLMCS (SEQ ID NO:25) (peptide)
# peptide: WWEWVCSLMCS
# modifications: linker 6-10 via alpha,alpha'‑meta‑xylylene
# notes: triple mutant
# B6: WWEWWCSLMCS (SEQ ID NO:26) (peptide)
# peptide: WWEWWCSLMCS
# modifications: linker 6-10 via alpha,alpha'‑meta‑xylylene
# notes: quadruple mutant; also called compound (IVa)
# B7: WSEEVCSLMCS (SEQ ID NO:17) (peptide)
# peptide: WSEEVCSLMCS
# modifications: linker 6-10 via alpha,alpha'‑meta‑xylylene
# notes: single mutant
# B8: TWEWVCSLMCS (SEQ ID NO:23) (peptide)
# peptide: TWEWVCSLMCS
# modifications: linker 6-10 via alpha,alpha'‑meta‑xylylene
# notes: double mutant
# B9: FFEFFCSLMCS (SEQ ID NO:27) (peptide)
# peptide: FFEFFCSLMCS
# modifications: linker 6-10 via alpha,alpha'‑meta‑xylylene
# B10: SCESVCKPWGPKVP (SEQ ID NO:55) (peptide)
# peptide: SCESVCKPWGPKVP
# modifications: linker 2-6 via alpha,alpha'‑meta‑xylylene
# notes: 14-mer
# B11: SCEEVCKPGGP (SEQ ID NO:47) (peptide)
# peptide: SCEEVCKPGGP
# modifications: linker 2-6 via alpha,alpha'‑meta‑xylylene
# B12: SCEVVCKMTGLKVPL (SEQ ID NO:56) (peptide)
# peptide: SCEVVCKMTGLKVPL
# modifications: linker 2-6 via alpha,alpha'‑meta‑xylylene
# notes: 15-mer
# B13: SCESVCKMTGL (SEQ ID NO:37) (peptide)
# peptide: SCESVCKMTGL
# modifications: linker 2-6 via alpha,alpha'‑meta‑xylylene
# B14: SCEVVCKMTGP (SEQ ID NO:44) (peptide)
# peptide: SCEVVCKMTGP
# modifications: linker 2-6 via alpha,alpha'‑meta‑xylylene
# B15: SCESVCKPWGP (SEQ ID NO:50) (peptide)
# peptide: SCESVCKPWGP
# modifications: linker 2-6 via alpha,alpha'‑meta‑xylylene
# notes: also called compound (IIa); quadruple mutant
# B16: LFKREVTIPPKYCELLC (SEQ ID NO:68) (peptide)
# peptide: LFKREVTIPPKYCELLC
# modifications: linker 13-17 via alpha,alpha'‑meta‑xylylene
# notes: 17 amino acids
# B17: EVTIPPKYCELLC (SEQ ID NO:69) (peptide)
# peptide: EVTIPPKYCELLC
# modifications: linker 9-13 via alpha,alpha'‑meta‑xylylene
# B18: IPPKYRCLLAC (SEQ ID NO:66) (peptide)
# peptide: IPPKYRCLLAC
# modifications: linker 7-11 via alpha,alpha'‑meta‑xylylene
# Target: T3, Cathepsin L (UniProt P07711 114-333)
# T3 sequence (P07711 114-333 limits assumed): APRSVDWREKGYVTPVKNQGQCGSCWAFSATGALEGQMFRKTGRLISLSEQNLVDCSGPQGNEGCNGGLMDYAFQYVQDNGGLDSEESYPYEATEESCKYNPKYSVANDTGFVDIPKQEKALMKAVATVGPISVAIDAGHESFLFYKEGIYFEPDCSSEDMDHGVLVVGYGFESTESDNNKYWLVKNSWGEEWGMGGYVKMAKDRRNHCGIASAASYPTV
# Test: fluorescence-based enzyme inhibition assay
row,Ki,Binder
1,16.7 µM,B1
2,105 µM,B2
3,57.1 µM,B3
4,93.9 µM,B4
5,16.1 µM,B5
6,28.1 µM,B6
7,76 µM,B7
8,33.8 µM,B8

# Target: T1, Cathepsin K
# Test: fluorescence-based enzyme inhibition assay
row,Ki,Binder
1,67.5 µM,B4
2,19.5 µM,B5
3,37.9 µM,B6
4,65.7 µM,B8

# Target: T4, Cathepsin S (UniProt P25774 115-331)
# T4 sequence (P25774 115-331 limits assumed): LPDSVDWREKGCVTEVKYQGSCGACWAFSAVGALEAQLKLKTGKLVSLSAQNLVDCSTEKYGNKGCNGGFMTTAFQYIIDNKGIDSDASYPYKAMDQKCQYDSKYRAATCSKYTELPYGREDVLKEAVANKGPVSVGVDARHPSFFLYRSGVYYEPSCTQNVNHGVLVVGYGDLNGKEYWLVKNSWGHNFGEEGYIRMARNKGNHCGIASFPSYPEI
# Test: fluorescence-based enzyme inhibition assay
row,Ki,Binder
1,52.1 µM,B1
2,80.4 µM,B2
3,33.1 µM,B3
4,29.7 µM,B4
5,6.74 µM,B5
6,1.23 µM,B6
7,51 µM,B7
8,14.3 µM,B8
9,13.1 µM,B9

# Target: T2, Calpain-1
# Test: fluorescence-based enzyme inhibition assay
row,Ki,Binder
1,85.5 µM,B5
2,66.7 µM,B6
3,108 µM,B7
4,88.4 µM,B8

# Target: T1, Cathepsin K
# Test: fluorescence-based enzyme inhibition assay
# Remark: another data set of the same source
row,Ki,Binder
1,16.2 µM,B10
2,> 100 µM,B11
3,22.7 µM,B12
4,> 100 µM,B13
5,1.34 µM and 0.659 µM,B14
6,17.2 µM,B15

# Target: T4, Cathepsin S
# Test: fluorescence-based enzyme inhibition assay
# Remark: another data set of the same source
row,Ki,Binder
1,10.8 µM,B13
2,27.8 µM,B14

# Target: T3, Cathepsin L
# Test: fluorescence-based enzyme inhibition assay
# Remark: another data set of the same source
row,Ki,Binder
1,10.7 µM,B16
2,69.6 µM,B17
3,5.1 µM,B18

# Target: T4, Cathepsin S
# Test: fluorescence-based enzyme inhibition assay
# Remark: another data set of the same source
row,Ki,Binder
1,41.5 µM,B16
2,31.3 µM,B17

# Target: T2, Calpain-1
# Test: fluorescence-based enzyme inhibition assay
# Remark: another data set of the same source
row,Ki,Binder
1,1.3 µM,B16
2,5.3 µM,B17
3,7.5 µM,B18
